Results: patent publication US20030147847A1 (IMMUNEX, published 2003)

T1: NKG2D/Dap10 on transfected 293E cells (UniProt P26718 1-216; Q9UBK5 19-93)
T1 construct: whole, on cells; Co-expressed on 293 EBNA (293E) cells from the pDC409 vector; also called NKG2D+FLAG tagged Dap10
T1 sequence 1: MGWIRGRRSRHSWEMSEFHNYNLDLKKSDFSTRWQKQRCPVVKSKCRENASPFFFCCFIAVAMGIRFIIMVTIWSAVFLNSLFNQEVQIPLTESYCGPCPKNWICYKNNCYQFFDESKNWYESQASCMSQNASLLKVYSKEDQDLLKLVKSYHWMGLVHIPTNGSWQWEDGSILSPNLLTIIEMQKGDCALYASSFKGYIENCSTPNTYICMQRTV
T1 sequence 2: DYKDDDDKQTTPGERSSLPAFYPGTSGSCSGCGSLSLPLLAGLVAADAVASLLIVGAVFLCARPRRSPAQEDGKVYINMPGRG

T2: Full length UL16 on transfected 293 EBNA cells (human cytomegalovirus, UniProt P16757 27-230)
T2 construct: whole, on cells; also called UL16 FL
T2 sequence: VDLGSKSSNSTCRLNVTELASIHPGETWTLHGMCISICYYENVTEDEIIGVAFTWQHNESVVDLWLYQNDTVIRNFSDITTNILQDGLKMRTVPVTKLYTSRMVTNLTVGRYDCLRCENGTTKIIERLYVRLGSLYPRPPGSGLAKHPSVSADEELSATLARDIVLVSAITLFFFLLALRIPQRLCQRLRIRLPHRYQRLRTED

T3: NKG2D alone on transfected 293 EBNA cells (UniProt P26718 1-216, limits assumed)
T3 construct: whole, on cells
T3 sequence (looked up): T1 sequence 1

T4: FLAG tagged Dap10 alone on transfected 293 EBNA cells (UniProt Q9UBK5 19-93)
T4 construct: whole, on cells
T4 sequence: T1 sequence 2

B1: human ULBP1-Fc fusion polypeptide (Fc fusion)
chain: WSRAGWVDTHCLCYDFIITPKSRPEPQWCEVQGLVDERPFLHYDCVNHKAKAFASLGKKVNVTKTWEEQTETLRDVVDFLKGQLLDIQVENLIPIEPLTLQARMSCEHEAHGHGRGSWQFLFNGQKFLLFDSNNRKWTALHPGAKKMTEKWEKNRDVTMFFQKISLGDCKMWLEEFLMYWEQMLDPTKPPSLAPGTTQPRSCDKTHTCPPCPAPEAEGAPSVFLFPPKPKDTLMISRTPEVTCVVVDVSHEDPEVKFNWYVDGVEVHNAKTKPREEQYNSTYRVVSVLTVLHQDWLNGKEYKCKVSNKALPAPIEKTISKAKGQPREPQVYTLPPSRDELTKNQVSLTCLVKGFYPSDIAVEWESNGQPENNYKTTPPVLDSDGSFFLYSKLTVDKSRWQQGNVFSCSVMHEALHNHYTQKSLSLSPGK
notes: ULBP-1 extracellular domain fused to the human IgG1 Fc mutein
B2: MICA/Fc (Fc fusion, UniProt Q29983 24-307, looked up)
chain: EPHSLRYNLTVLSWDGSVQSGFLTEVHLDGQPFLRCDRQKCRAKPQGQWAEDVLGNKTWDRETRDLTGNGKDLRMTLAHIKDQKEGLHSLQEIRVCEIHEDNSTRSSQHFYYDGELFLSQNLETKEWTMPQSSRAQTLAMNVRNFLKEDAMKTKTHYHAMHADCLQELRRYLKSGVVLRRTVPPMVNVTRSEASEGNITVTCRASGFYPWNITLSWRQDGVSLSHDTQQWGDVLPDGNGTYQTWVATRICQGEEQRFTCYMEHSGNHSTHPVPSGKVLVLQSHW
notes: not shown: Fc portion not described
B3: MICB/Fc (Fc fusion, UniProt Q29980 23-309, looked up)
chain: AEPHSLRYNLMVLSQDGSVQSGFLAEGHLDGQPFLRYDRQKRRAKPQGQWAENVLGAKTWDTETEDLTENGQDLRRTLTHIKDQKGGLHSLQEIRVCEIHEDSSTRGSRHFYYDGELFLSQNLETQESTVPQSSRAQTLAMNVTNFWKEDAMKTKTHYRAMQADCLQKLQRYLKSGVAIRRTVPPMVNVTCSEVSEGNITVTCRASSFYPRNITLTWRQDGVSLSHNTQQWGDVLPDGNGTYQTWVATRIRQGEEQRFTCYMEHSGNHGTHPVPSGKALVLQSQRTD
notes: also called MICB1/FC; not shown: Fc portion not described
B4: UL16-Fc fusion protein (Fc fusion)
chain: VDLGSKSSNSTCRLNVTELASIHPGETWTLHGMCISICYYENVTEDEIIGVAFTWQHNESVVDLWLYQNDTVIRNFSDITTNILQDGLKMRTVPVTKLYTSRMVTNLTVGRYDCLRCENGTTKIIERLYVRLGSLYPRPPGSGLAKHPSVSADEELSA
notes: extracellular domain; not shown: IgG1 Fc (mutein form), as described for OX40-Fc (Baum et al., EMBO J. 13:3992-4001, 1994); the mutein is described in p-

Target: T1, NKG2D/Dap10 on transfected 293E cells
Test: flow cytometry; NKG2D/Dap10-transfected 293E cells preincubated with 25 µg ULBP1/LZ (competitor)

B1 and B2 are the same in “Mean Fluorescence Intensity (MFI)” value: 11 MFI for the first, 11 MFI for the second.

For B3, the “Mean Fluorescence Intensity (MFI)” value was 9 MFI.

Target: T1, NKG2D/Dap10 on transfected 293E cells
Test: flow cytometry; NKG2D/Dap10-transfected 293E cells preincubated with 25 µg hCD40L/LZ (control blocking protein)

First: B1
Second: B2
The “Mean Fluorescence Intensity (MFI)” value of the first is higher: 263 MFI for the first, 256 MFI for the second.

For B3, the “Mean Fluorescence Intensity (MFI)” value was 258 MFI.

Target: T2, Full length UL16 on transfected 293 …
Test: flow cytometry, transfected 293 EBNA cells, 2 µg Fc protein + goat anti-human IgG PE

First: B1
Second: B2
The “Mean Fluorescence Intensity (MFI)” value of the first is higher: 142 MFI for the first, 14 MFI for the second.

First: B4
Second: B3
The “Mean Fluorescence Intensity (MFI)” value of the first is lower: 17.9 MFI for the first, 94.5 MFI for the second.

Target: T3, NKG2D alone on transfected 293 EBNA …
Test: as above

First: B1
Second: B2
The “Mean Fluorescence Intensity (MFI)” value of the first is lower: 10.4 MFI for the first, 15.4 MFI for the second.

Compared with B4, B3 is lower in “Mean Fluorescence Intensity (MFI)” value: 27.9 MFI for the first, 9.58 MFI for the second.

Target: T1, NKG2D/Dap10 on transfected 293E cells
Test: as above

Going from B1 to B2, the “Mean Fluorescence Intensity (MFI)” value rises from 115 MFI to 120 MFI.

Compared with B4, B3 is higher in “Mean Fluorescence Intensity (MFI)” value: 21.2 MFI for the first, 118 MFI for the second.

Target: T4, FLAG tagged Dap10 alone on transfected …
Test: as above

Going from B1 to B2, the “Mean Fluorescence Intensity (MFI)” value falls from 13.6 MFI to 12 MFI.

Compared with B4, B3 is lower in “Mean Fluorescence Intensity (MFI)” value: 39.2 MFI for the first, 18.4 MFI for the second.
